Results from patent US20250019435A1 (ALBERT EINSTEIN COLLEGE OF MEDICINE, published 2025).

Tests used:
[1] = biological target: T1, KIR2DL5A*005 allele expressed on 3T3 cells (human); assay: flow cytometry, transduced 3T3 cells, mAb 5 µg/mL
T1 construct: also called 2D5A*005
Protocol: (§1) FIG. 8A-8D: Generation and characterization of anti-KIR2DL5-specific mAbs. (A) The specificity of anti-KIR2DL5 mAb clone F8B30. 3T3 cells transduced with indicated KIR family members were stained with 5 μg/mL of F8B30 (open) or mIgG1 (shaded). (B) 3T3 cells transduced with DO-deleted (KIR2DL5 dD0) or D2-deleted KIR2DL5 (KIR2DL5 dD2) were stained with 5 μg/mL of clone F8B30 or commercial clone UP-R1. (C) Anti-KIR2DL5 mAb clone F8B30 recognized different KIR2DL5A and 5B alleles. 3T3 cells transduced with indicated alleles were stained with 5 μg/mL of F8B30 or UP-R1 (open) or mIgG1 (shaded). (D) Anti-KIR2DL5 mAb clone F8B30 recognized different KIR2DL5 DO domain variants. 3T3 cells transduced with indicated DO variants were stained with 0.025 μg/mL of F8B30 or UP-R1 (open) or mIgG1 (shaded). In A-D, data are representative of 2 independent experiments.

[2] = biological target: KIR2DL5 D0 variant P112S expressed on 3T3 cells (human, UniProt Q8N109 22-375); assay: flow cytometry on 3T3 cells expressing the KIR2DL5 D0 variant
Sequence of KIR2DL5 D0 variant P112S expressed on 3T3 cells (Q8N109 22-375 P112S): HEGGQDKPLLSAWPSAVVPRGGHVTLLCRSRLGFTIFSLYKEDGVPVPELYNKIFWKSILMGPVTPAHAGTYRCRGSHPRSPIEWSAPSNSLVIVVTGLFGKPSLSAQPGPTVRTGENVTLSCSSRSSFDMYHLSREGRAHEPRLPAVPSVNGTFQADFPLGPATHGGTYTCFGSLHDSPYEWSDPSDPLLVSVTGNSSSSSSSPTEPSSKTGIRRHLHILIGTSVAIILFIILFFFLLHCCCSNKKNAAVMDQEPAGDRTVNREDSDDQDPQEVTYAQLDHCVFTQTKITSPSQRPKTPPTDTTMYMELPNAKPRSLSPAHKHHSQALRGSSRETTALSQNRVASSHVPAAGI

[3] = biological target: KIR2DL5 D0 variant T46S expressed on 3T3 cells (human, UniProt Q8N109 22-375); assay: as above
Sequence of KIR2DL5 D0 variant T46S expressed on 3T3 cells (Q8N109 22-375 T46S): as the sequence (Q8N109 22-375 P112S) above, with T25S, S91P counted along it

[4] = biological target: KIR2DL5 D0 variant G97S expressed on 3T3 cells (human, UniProt Q8N109 22-375); assay: as above
Sequence of KIR2DL5 D0 variant G97S expressed on 3T3 cells (Q8N109 22-375 G97S): as the sequence (Q8N109 22-375 P112S) above, with G76S, S91P counted along it

[5] = biological target: KIR2DL5 D0 variant R52H expressed on 3T3 cells (human, UniProt Q8N109 22-375); assay: as above
Sequence of KIR2DL5 D0 variant R52H expressed on 3T3 cells (Q8N109 22-375 R52H): as the sequence (Q8N109 22-375 P112S) above, with R31H, S91P counted along it

[6] = biological target: T2, D0-deleted KIR2DL5 expressed on 3T3 cells (human, UniProt Q8N109 119-375); assay: flow cytometry, transduced 3T3 cells
T2 construct: the signal peptide 1-21 is left out; also called KIR2DL5 dD0; DO-deleted KIR2DL5
T2 sequence (Q8N109 119-375, stated change not applied): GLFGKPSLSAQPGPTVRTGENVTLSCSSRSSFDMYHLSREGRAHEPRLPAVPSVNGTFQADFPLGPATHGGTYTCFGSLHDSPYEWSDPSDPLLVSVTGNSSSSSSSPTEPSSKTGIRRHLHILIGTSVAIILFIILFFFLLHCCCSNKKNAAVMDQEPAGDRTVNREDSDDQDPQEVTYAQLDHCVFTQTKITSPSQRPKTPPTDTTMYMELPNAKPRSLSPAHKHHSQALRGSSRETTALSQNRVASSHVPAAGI
Protocol: as §1

[7] = biological target: T3, Y328F; assay: flow cytometry, transduced primary NK cells
T3 construct: also called KIR2DL5 Y328F (ITSM mutant) on transduced primary NK cells
T3 sequence (receptor chain, as listed by the source Y328F Y328F limits assumed): as the sequence (Q8N109 22-375 P112S) above, with S91P, Y307F counted along it
Protocol: (§2) The KIR2DL5⁻ primary NK cells were transduced with WT KIR2DL5 or the indicated mutants, and then examined for protein expression with F8B30 (open) or mIgG1 (shaded). NC, negative control. Data are representative of 2 independent experiments. (B and C) Transduced primary NK cells were treated with (+) or without (−) pervanadate (VO₄) for 5 minutes. Cell lysates were immunoprecipitated with anti-KIR2DL5 antibodies. Phospho-tyrosine (4G10), SHP-1, SHP-2, and total KIR2DL5 were detected by immunoblots (B). Quantification of p-Tyr, SHP-1, and SHP-2 association with WT or mutant KIR2DL5 in VO₄-treated NK cells (C). WCL, whole-cell lysates. (D) Representative imaging of cell conjugates acquired upon the indicated transduced primary NK and PVR/Raji cell contact followed by staining with anti-KIR2DL5 mAb and DAPI. Scale bars: […]. (E) Lysis of scramble control or PVR^KO A427 (top) and Jurkat (bottom) by WT or mutant KIR2DL5-transduced primary NK cells at the indicated E/T ratios. Data are mean for duplicate measurements and representative of 3 independent experiments with 3 different donors. In A, and B, data are representative of 3 independent experiments. *P<0.05, **P<0.01, ***P<0.001, ****P<0.0001, by 1-way ANOVA (C), or paired Student's t test (D).
(§3) Primary NK cell transduction. KIR2DL5 wild type and variants of ITIM/ITSM expressed on the surface of KIR2DL5⁻ primary NK cells were introduced by lentiviral transduction. Lentivirus was produced in HEK293T cells cotransfected with psPAX, pMD2.G, and a lentiviral backbone pSin vector (a gift from the Alec Zhang laboratory, Department of Physiology, University of Texas Southwestern Medical Center, Dallas, Texas, USA) containing the full-length gene sequence of KIR2DL5A*001 using jetPRIME reagents (Polyplus Transfection). Virus-containing supernatant was harvested 48-72 hours after transfection and filtered through a 0.45 µm filter. Non-tissue-culture-treated plates were coated with retronectin, and virus supernatant was then incubated on the surface of plates at 2,000 g for 120 minutes at 37° C. […]

[8] = biological target: T4, Y298F/Y328F; assay: flow cytometry, transduced primary NK cells
T4 construct: also called KIR2DL5 Y298F/Y328F (ITIM and ITSM mutant) on transduced primary NK cells
T4 sequence (receptor chain, as listed by the source Y298F Y328F Y298F Y328F limits assumed): as the sequence (Q8N109 22-375 P112S) above, with S91P, Y277F, Y307F counted along it
Protocol: as §2, §3

[9] = biological target: T5, Y298F; assay: flow cytometry, transduced primary NK cells
T5 construct: also called KIR2DL5 Y298F (ITIM mutant) on transduced primary NK cells
T5 sequence (receptor chain, as listed by the source Y298F Y298F limits assumed): as the sequence (Q8N109 22-375 P112S) above, with S91P, Y277F counted along it
Protocol: as §2, §3

[10] = biological target: T6, KIR2DL5-Ig fusion protein (KIR2DL5 extracellular domain fused to human IgG1 Fc) (human, UniProt Q8N109 22-240); assay: BLI, Octet RED96; KIR2DL5-Ig captured on anti-human Fc biosensors, mAb in solution; global 1:1 fit
T6 construct: A D0-only fusion (H22-A128) also exists; also called KIR2DL5-human Ig fusion protein; KIR2DL5 DO-D2-Ig; not shown: human IgG1 Fc tag
T6 sequence (Q8N109 22-240): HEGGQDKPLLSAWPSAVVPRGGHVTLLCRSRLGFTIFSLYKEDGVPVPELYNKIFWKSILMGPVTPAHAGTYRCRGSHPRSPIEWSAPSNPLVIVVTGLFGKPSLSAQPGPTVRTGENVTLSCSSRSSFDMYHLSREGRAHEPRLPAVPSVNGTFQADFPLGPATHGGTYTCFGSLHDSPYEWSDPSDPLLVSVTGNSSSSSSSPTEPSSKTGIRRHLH
Protocol: Biolayer interferometry. The affinities of anti-KIR2DL5 mAbs were analyzed by biolayer interferometry using an Octet RED96 system (ForteBio, Pall LLC). Briefly, anti-human Fc capture biosensors (ForteBio, Pall LLC) were preloaded with KIR2DL5-Ig and then dipped into a solution containing mAb at 2-fold serial dilutions (from 200 to 1.5 μg/mL). Data were analyzed using Forte Pall (Port Washington, New York, USA) software 9.0. The global data fitting to a 1:1 binding model was used to estimate values for the Kₒₙ (association rate constant), Koff (dissociation rate constant), and KD (equilibrium dissociation constant).

T1 sequence (chain, as listed by the source): as the sequence (Q8N109 22-375 P112S) above, with S91P, N152D, G174S counted along it

binding result [1]: binds | EC50 [2]: 9.4 nM | EC50 [3]: 8.6 nM | EC50 [4]: 43.6 nM | EC50 [5]: 9.2 nM | binding result [6]: no binding (tested: 5 µg/mL) | binding result [7]: binds | binding result [8]: binds | binding result [9]: binds | Kd [10]: 0.723 nM | koff [10]: 0.000444 s⁻¹ | kon [10]: 615000 M⁻¹ s⁻¹
B1: anti-KIR2DL5 mAb clone F8B30 (antibody, V domains shown)
VH: QIQLVQSGPELKKPGETVKISCKASGYTFTDYSMHWVKQAPGKGLKWMGWINTETGGPTYADDFKGRFAFSLETSATTAYLQINNLKNEDTATYFCSRDVDLYFDYWGQGTTLTVS
VL: DIQMTQSPASLSASVGETVTITCRTSENIYSYLAWYQQKQGKSPQLLVYNAKTLVEGVPSRFSGSGSGTQFSVKINSLQPEDFGNYYCQHHYGIPFTFGGGTKLEIK
notes: also called F8B30 (IgG1, κ)
